In assay [1] the target is BDBV GP on rVSV particles (Bundibugyo virus (BDBV)). The assay can be described thus: cell-based or functional assay.
The target in assay [2] is T1, RESTV GP on rVSV particles (Reston virus (RESTV), UniProt Q66799 34-677).
T1 sequence: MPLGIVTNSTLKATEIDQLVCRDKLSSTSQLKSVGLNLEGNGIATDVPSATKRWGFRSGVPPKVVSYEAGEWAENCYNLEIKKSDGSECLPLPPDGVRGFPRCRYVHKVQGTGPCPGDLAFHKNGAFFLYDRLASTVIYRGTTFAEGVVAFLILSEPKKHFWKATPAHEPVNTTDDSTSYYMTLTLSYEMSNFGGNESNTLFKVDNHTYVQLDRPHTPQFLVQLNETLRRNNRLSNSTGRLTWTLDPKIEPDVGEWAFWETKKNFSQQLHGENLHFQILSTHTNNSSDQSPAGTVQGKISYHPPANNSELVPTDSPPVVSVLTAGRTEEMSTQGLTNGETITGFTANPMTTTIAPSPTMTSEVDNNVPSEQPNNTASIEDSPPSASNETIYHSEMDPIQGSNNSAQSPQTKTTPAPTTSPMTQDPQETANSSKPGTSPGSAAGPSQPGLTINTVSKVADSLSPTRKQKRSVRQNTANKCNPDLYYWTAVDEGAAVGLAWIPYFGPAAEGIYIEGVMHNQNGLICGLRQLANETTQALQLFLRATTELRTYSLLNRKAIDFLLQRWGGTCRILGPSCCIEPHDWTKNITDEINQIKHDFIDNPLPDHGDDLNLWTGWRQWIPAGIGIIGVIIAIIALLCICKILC
The assay can be described thus: cell-based or functional assay.

Assay [3] addresses T2, GP of authentic (wild-type) SUDV (Sudan virus (SUDV), UniProt Q66814 33-676).
T2 sequence: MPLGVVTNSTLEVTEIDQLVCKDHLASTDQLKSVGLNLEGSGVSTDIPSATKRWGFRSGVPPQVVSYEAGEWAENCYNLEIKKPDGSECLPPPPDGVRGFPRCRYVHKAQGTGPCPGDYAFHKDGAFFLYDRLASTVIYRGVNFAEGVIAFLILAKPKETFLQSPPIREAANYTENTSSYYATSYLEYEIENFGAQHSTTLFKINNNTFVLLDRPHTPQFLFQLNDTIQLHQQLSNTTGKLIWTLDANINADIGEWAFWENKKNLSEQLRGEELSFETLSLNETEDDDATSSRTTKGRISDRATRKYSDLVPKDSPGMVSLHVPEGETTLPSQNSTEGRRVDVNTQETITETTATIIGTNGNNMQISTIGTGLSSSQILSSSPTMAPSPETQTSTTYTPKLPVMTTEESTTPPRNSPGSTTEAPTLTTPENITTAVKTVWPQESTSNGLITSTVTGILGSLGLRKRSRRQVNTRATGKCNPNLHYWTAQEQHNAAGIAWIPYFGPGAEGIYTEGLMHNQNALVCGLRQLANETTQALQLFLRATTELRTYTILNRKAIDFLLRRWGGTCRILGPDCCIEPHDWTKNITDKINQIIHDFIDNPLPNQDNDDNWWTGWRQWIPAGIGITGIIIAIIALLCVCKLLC
The assay can be described thus: cell-based or functional assay.

In assay [4] the target is GP of authentic (wild-type) BDBV (Bundibugyo virus (BDBV)). The assay can be described thus: cell-based or functional assay.
The target in assay [5] is T3, GP of authentic (wild-type) EBOV (Ebola virus (EBOV), UniProt P87666 33-676).
T3 sequence: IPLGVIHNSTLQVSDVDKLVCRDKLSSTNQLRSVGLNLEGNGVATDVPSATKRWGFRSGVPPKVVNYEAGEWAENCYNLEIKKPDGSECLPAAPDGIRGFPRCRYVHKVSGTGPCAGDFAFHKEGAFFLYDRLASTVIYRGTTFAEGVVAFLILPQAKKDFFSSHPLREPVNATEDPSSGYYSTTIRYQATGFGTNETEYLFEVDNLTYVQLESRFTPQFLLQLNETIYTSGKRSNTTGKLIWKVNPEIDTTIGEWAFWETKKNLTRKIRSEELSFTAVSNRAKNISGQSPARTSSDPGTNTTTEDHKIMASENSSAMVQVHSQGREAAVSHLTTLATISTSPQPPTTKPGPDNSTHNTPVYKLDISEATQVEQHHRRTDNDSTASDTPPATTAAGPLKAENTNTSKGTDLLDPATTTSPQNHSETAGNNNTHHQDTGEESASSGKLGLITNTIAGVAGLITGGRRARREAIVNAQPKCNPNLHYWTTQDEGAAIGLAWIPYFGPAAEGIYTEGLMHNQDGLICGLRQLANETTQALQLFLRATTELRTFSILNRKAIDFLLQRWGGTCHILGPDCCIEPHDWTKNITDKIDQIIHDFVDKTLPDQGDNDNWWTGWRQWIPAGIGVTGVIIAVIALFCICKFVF
The assay can be described thus: cell-based or functional assay.

A further assay deals with T4, EBOV GP (Ebola virus (EBOV), UniProt Q05320 33-637).
T4 sequence: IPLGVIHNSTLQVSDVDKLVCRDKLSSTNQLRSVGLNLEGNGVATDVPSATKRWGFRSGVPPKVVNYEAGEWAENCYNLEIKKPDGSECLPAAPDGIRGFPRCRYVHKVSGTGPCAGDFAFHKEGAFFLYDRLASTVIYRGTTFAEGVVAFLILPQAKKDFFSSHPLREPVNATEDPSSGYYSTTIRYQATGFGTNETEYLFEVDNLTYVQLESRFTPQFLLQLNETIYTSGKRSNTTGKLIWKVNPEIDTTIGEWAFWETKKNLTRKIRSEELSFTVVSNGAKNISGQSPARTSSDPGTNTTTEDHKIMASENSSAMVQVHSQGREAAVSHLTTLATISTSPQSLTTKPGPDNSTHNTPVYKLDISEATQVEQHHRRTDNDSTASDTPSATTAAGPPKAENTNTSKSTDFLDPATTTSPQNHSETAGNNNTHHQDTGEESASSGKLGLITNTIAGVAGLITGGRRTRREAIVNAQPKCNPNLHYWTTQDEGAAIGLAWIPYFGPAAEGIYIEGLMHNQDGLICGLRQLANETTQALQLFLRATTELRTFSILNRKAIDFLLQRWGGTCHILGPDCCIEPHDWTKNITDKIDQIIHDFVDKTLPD

The Kd is the equilibrium constant for the complex coming apart. High values mean lower affinity, low ones higher affinity.

B1: mAb PE-87 (antibody, V domains shown)
VH: QVQLVQSGVTLVQPGGSLRVSCAASGFTFSSYAMSWVRQAPGKGLEWVSAISGLGGSTYYADSVKGRFTISRDNSKNTLYLQMNSLRAEDTAVYYCAKDHRVWAAGYHFDYWGQGALVTVSS
VL: DIVLTQSPSTLSASVGDRVTITCRASQSISSWLAWYQQKPGEAPKLLISDASSLESGVPSRFSGSGSGTEFTLTISSLQPDDFATYYCQQYYSSPTFGGGTKVEIK
As to B1, the “rVSV-GP neutralization IC50” value is 0.5 nM in assay [1] and 0.2 nM in assay [2]. Besides, the “Authentic virus neutralization IC50” value stood at 0.2 nM in assay [3], 0.6 nM in assay [4] and 0.2 nM in assay [5]. This molecule also yielded an equilibrium dissociation constant (Kd) with EBOV GP of less than 0.01 nM.

B2: mAb PE-24 (antibody, V domains shown)
VH: EVQLVESGGGLVQPGGSLRLSCAASGFTFSSYAMSWVRQAPGKGLEWVSEISGLGGSTYYADSAKGRFTISRDNSKSTLYLQMNSLRAEDTAVYYCAKDHRVWAPGYYFDHWGQGTLVTVSS
VL: DIVLTQSPSTLSASVGDRVTITCRASQSISSWLAWYQQKPGKAPKLLIYDASSLESGVPSRFSGSGSGTEFTLTISSLQPDDFATYFCQQYNRSPTFGGGTKVEIK
As to B2, the “rVSV-GP neutralization IC50” value in assay [1] stood at 1 nM; in assay [2], 0.2 nM. Also, the “Authentic virus neutralization IC50” value was determined as 0.2 nM in assay [3], 0.6 nM in assay [4] and 0.7 nM in assay [5]. Binding with EBOV GP was put at a Kd of 1 nM.

B3: mAb PE-47 (antibody, V domains shown)
VH: EVQLVESGGGLVKPGGSLRLSCAASGFTFSNAWMSWVRQAPGEGLEWVGRIKSKTDGGTIDYAAPVKGRFTISRDDSKNTVYLQMTSLKTEDTAVYYCTTYTEDMQYFDWLLRGGETFDYWGQGTLVTVSS
VL: DIQMTQSPSSLSASVGDRVTITCRASQYISTYLNWYQQKPGKAPKLLIYAAYNLQSGVPSRFSGSGSGTDFTLTISSLQPEDFATYYCQQSYSTPGRYTFGQGTKVEIK
The molecule B3 came in with an equilibrium dissociation constant (Kd) with EBOV GP of 3.5 nM.

B4: mAb PE-16 (antibody, V domains shown)
VH: QVQLVQSGAEVTKPGASVKVSCKASGYTFTTYYMHWVRQAPGQGLEWVGIINPSGGITRYAQKFQGRVTLTRDTSTTTVYMELSSLRSEDTAVYYCARDRYPVLFATDYGMDVWGQGTTVTVSS
VL: DIVMTQSPATLSLSPGERATLSCRASQSVSGYLAWYQQKPGQAPRLLIYDASNRATGIPARFSGSGSGTDFTLTISSLEPEDFAVYYCQQRSIWPPGVTFGGGTKVEIK
B4: in assay [1], the “rVSV-GP neutralization IC50” value turned out to be 0.6 nM. Moreover, the “Authentic virus neutralization IC50” value in assay [3] was determined as 300 nM; in assay [4], 0.3 nM; in assay [5], 0.1 nM. The molecule also registered a Kd with EBOV GP of 0.16 nM.

B5: mAb PE-05 (antibody, V domains shown)
VH: QVQLQESGGGLVKPGRSLRLSCTASGFTFGDYAMSWFRQAPGKGLEWVGFLRSKAYGGTAEYAASVKGRFTMSRDDSKSIAYLQMNSLKTEDTAVYFCTRDGFRGSSWGYSYYGMDVWGQGTTVTVSS
VL: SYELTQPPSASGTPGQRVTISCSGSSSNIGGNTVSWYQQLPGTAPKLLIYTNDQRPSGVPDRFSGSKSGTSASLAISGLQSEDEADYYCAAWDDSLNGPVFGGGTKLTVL
B5: the “rVSV-GP neutralization IC50” value in assay [1] came to 4 nM; in assay [2], 22 nM. Moreover, in assay [5], the “Authentic virus neutralization IC50” value came out at 5.2 nM. Further, the affinity with EBOV GP, expressed as Kd, was 44 nM.

Source of the values: US20180244758A1 (MAPP BIOPHARMACEUTICAL, published 2018).
